From patent US20250264455

Biological target: T1, P2-TmEnc^BC2-Tag
T1 chain: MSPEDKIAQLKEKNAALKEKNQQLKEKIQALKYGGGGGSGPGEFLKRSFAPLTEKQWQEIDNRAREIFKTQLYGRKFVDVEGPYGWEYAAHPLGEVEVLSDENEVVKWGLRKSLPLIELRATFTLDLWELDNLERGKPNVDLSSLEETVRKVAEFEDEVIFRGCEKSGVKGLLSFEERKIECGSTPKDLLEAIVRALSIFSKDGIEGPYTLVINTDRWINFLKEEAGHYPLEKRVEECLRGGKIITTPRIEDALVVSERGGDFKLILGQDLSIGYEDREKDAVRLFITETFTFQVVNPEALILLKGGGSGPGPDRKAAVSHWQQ

B1: BmTyr-P1 (protein)
chain: MGHSNKYRVRKNVLHLTDTEKRDFVRTVLILKEKGIYDRYIAWHGAAGKFHTPPGSDRNAAHMSSAFLPWHREYLLRFERDLQSINPEVTLPYWEWETDAQMQDPSQSQIWSADFMGGNGNPIKDFIVDTGPFAAGRWTTIDEQGNPSGGLKRNFGATKEAPTLPTRDDVLNALKITQYDTPPWDMTSQNSFRNQLEGFINGPQLHNRVHRWVGGQMGVVPTAPNDPVFFLHHANVDRIWAVWQIIHRNQNYQPMKNGPFGQNFRDPMYPWNTTPEDVMNHRKLGYVYDIELRKSKRSSGGGGSGGGGSTGSPEDEIQALEEENAQLEQENAALEEEIAQLEYGSGSETPGTSESATPESAISHGFPPEVEEQAAGTLPMSCAQESGMDRHPAACASARINV
melanin formation on CN-PAGE: melanin formation could be demonstrated by color formation on CN-PAGE
melanin formation on clear native PAGE: The dark high molecular weight bands at 1.0 MDa represent melanin-loaded TmEnc nanospheres
